Results reported in paper PMC7894528, “Metal Ion Promiscuity and Structure of 2,3‐Dihydroxybenzoic Acid Decarboxylase of Aspergillus oryzae” (Chembiochem, 2020).

Substrate: O=C(O)c1cccc(O)c1O
Assay: steady-state decarboxylation kinetics
Format: biochemical, Aspergillus oryzae
Conditions: Mg2+-loaded enzyme; decarboxylation direction

B1: 2,3-DHBD_Ao (Aspergillus oryzae RIB40) (protein)
chain: MLGKIALEEAFALPRFEEKTRWWASLFSTDAETHVKEITDINKIRIEHADKHGVGYQILSYTAPGVQDIWDPVEAQALAVEINDYIAEQVRVNPDRFGAFATLSMHNPKEAADELRRCVEKYGFKGALVNDTQRAGPDGDDMIFYDNADWDIFWQTCTELDVPFYMHPRNPTGTIYEKLWADRKWLVGPPLSFAHGVSLHVLGMVTNGVFDRHPKLQIIMGHLGEHVPFDMWRINHWFEDRKKLLGLAETCKKTIRDYFAENIWITTSGHFSTTTLNFCMAEVGSDRILFSIDYPFETFSDACEWFDNAELNGTDRLKIGRENAKKLFKLDSYKDSSA
notes: recombinant, purified by size exclusion chromatography
For B1, the Km was 208 µM and the kcat was 15 s–1.
